The values below are quoted from earlier work in paper PMC4659487.

The data set deals with MurC (Escherichia coli) (UniProt P17952).

Regarding MurC (from UniProt P17952), the dissociation constant Kd – broadly, the concentration at which binding is half-saturated – was 1000 nM.
